Key:
[1] = molecular target: Human GHSR (growth hormone secretagogue receptor, ghrelin receptor), purified and inserted into lipid nanodiscs (human) (UniProt Q92847); experiment: FRET or BRET; competition: time-resolved energy transfer between purified GHSR labeled with Lumi4-Tb at its N-terminus and dy647-labeled ghrelin (0.1 µM range), increasing competitor; GHSR in 17 nm nanodiscs (cNW30 scaffold); isolated receptor without G protein
[2] = molecular target: Human GHSR (growth hormone secretagogue receptor, ghrelin receptor), purified and inserted into lipid nanodiscs (human) (UniProt Q92847); experiment: FRET or BRET; competition: time-resolved energy transfer between purified GHSR labeled with Lumi4-Tb at its N-terminus and dy647-labeled ghrelin (0.1 µM range), increasing competitor; GHSR in 12 nm nanodiscs (MSP1E3D1(-) scaffold); isolated receptor without G protein

Sequence of UniProt Q92847 (Q92847 whole entry): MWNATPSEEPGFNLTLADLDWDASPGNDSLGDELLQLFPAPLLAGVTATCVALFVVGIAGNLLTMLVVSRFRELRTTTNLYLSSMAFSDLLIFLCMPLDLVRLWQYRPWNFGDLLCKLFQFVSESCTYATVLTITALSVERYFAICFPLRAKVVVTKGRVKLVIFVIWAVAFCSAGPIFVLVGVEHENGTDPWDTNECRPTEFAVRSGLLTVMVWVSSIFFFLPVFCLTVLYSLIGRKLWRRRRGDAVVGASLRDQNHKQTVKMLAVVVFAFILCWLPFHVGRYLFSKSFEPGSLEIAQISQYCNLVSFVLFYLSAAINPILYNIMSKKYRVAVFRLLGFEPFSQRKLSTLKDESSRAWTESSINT

## LEAP2(1-14), the active N-terminal region of the natural inverse agonist LEAP2 (peptide)
[1]
  Ki: 4.6 nM
[2]
  Ki: 6.7 nM

— publication PMC8225672
